Legend:
Type in all cases: cell-based
[1] = tested on: mouse intestinal organoids; test: cystic organoid percentage, organoids in conditioned media (SCM/QCM) with or without inhibitors or antibodies; details: SCM-exposed organoids
Procedure: Twenty-four hours before collecting conditioned media (CM), MEFs were washed with serum-free DMEM twice, and serum-free DMEM was added. After 24 h in serum-free DMEM, this CM was collected, filtered using Steriflip filters (Millipore, #SE1M179M6) to remove cell debris, and concentrated using centrifugal filter units (Amicon ultra-15 centricon; Millipore, # UFC900324). […] CM was filtered and dialyzed for 24–48 h to remove the inhibitors before concentration.
(§1) The jejunum part of the small intestine was removed, flushed with PBS, opened longitudinally, then cut into 0.5 cm pieces. The collected tissues were washed with ice cold PBS multiple times by vortexing and incubated in PBS containing 2.5 mM EDTA for 5 min at 37 °C. After gentle shaking and aspiration, tissues were incubated in PBS containing 5 mM EDTA for 7 min at 37 °C. Tissues were then washed with PBS to remove EDTA and vigorously shaken to release crypts. The released crypts were passed through 70 μm strainers, washed with PBS, and pelleted by centrifugation at 200 × g.
(§2) 3-4 biological replicates of organoids from different mice were used per condition. Organoids were cultured in the indicated media, inhibitors, antibodies and/or recombinant proteins for 5 d and fixed in 4% formaldehyde in PBS. Organoids were imaged with a 4× Plan Fluor objective (NA: 0.13, Nikon) on a Nikon Ti-E inverted microscope equipped with a Neo scMOS camera (Andor, Oxford Instruments), a linear encoded automated stage (Applied Scientific Instrumentation), all run by NIS Elements software (Nikon). Organoids were imaged in brightfield and images covering the whole well were stitched and focused into one image projection with an extended depth of focus module (EDF; Nikon). One hundred to 200 organoids per replicate per condition were counted and used for quantification. The number of budding organoids in each condition was normalized by the number of budding organoids in untreated or DMSO treated controls to calculate cystic organoid percentage:1 Cysticorganoidpercentage=100×1−Numberofbuddingorganoidsfromexperiment/Numberofbuddingorganoidsfromcontrol

[2] = tested on: YAP in mouse intestinal organoids; test: whole mount immunostaining for YAP nuclear localization
Procedure: For whole mount staining, freshly passaged crypts were mixed with Matrigel (Corning, #356231) and mounted to µ-Slide 8 well chamber slides (ibidi, #80826). Media were changed every 2–3 d. 5 days later, organoids in the chamber slides were then fixed in 4% formaldehyde in PBS for 30 min, permeabilized with 0.5% Triton X-100 for 1 h, and incubated in blocking solution (3% normal donkey serum (Sigma-Aldrich, #566460) and 5% BSA (Sigma-Aldrich, #A7979) in 0.1% Triton X-100 + PBS) for 1 h. Primary and secondary antibodies were diluted in blocking solution and added to fixed organoids. Organoids were incubated with primary antibodies overnight at 4 °C and with secondary antibodies for 2 h. ProLong Diamond Antifade Mountant (Invitrogen, # P36970) was added. Images were acquired with a Yokogawa CSU-W1/Zeiss 3i Marianas spinning disk confocal microscopy system. For each organoid, Z-planes up to 100 μm with 1 or 1.5 μm z-steps were acquired to quantify the number of cell types.

[3] = tested on: mouse intestinal organoids; test: inhibition of Wnt5a-induced cystic organoids; details: Wnt5a-treated organoids
Procedure: as §1, with “g. Resuspended crypts were mixed with Matrigel (Corning, #356231; Lot#8218007) and pipetted into culture plates. After mixture of crypts and Matrigel solidified, IntestiCult Organoid Growth Medium (Stem Cell Technologies, #06005; Lots #1000021927, #1000034230, #1000037372) was added. Seven days after seeding, organoids were resuspended in dissociation buffer (Gentle Cell Dissociation Reagent; Stem Cell Technologies, #07174), dissociated by pipetting, and seeded for experiments.” for “g.”
as §2

[4] = tested on: mouse intestinal organoids; test: cystic organoid percentage, co-culture with quiescent or senescent intestinal fibroblasts; set-up: key: % = 100×(1 − budding organoids treated/budding organoids control); details: relative to DMSO = 0
Procedure: as §2
Mouse intestinal fibroblasts were purchased from Cell Biologics (#C57-6231) and cultured in Complete Fibroblast Medium (Cell Biologics, M2267) at 37 °C and 5% CO2. Cellular quiescence and senescence in mouse intestinal fibroblasts were induced by the similar methods described earlier for MEFs with minor modifications. Briefly, cellular quiescence was induced by culturing the fibroblasts in low serum (0.5% FBS), and cellular senescence was induced by 500 nM doxorubicin treatment for 5 days (doxorubicin; Sigma-Aldrich, #44583). Once cellular quiescence or senescence was induced, MEFs were maintained at 37 °C, 5% CO2, and 3% O2 for another 5 days. The quiescent or senescent fibroblasts were dissociated using 0.05% Trypsin-EDTA (Gibco, #25300-054) and counted for seeding. The same number of quiescent and senescent fibroblasts (5.2 × 10^4 cells) were mixed with intestinal organoids making total volume of 20 μl of Matrigel: organoid culture media mix, which was mounted on a 48 well plate.

[5] = tested on: β-Catenin-dependent Wnt signaling (HEK293-TB cells); test: TOPbrite dual-luciferase Wnt reporter assay; details: SF.3e
Procedure: Generation of HEK293 cells stably expressing a TOPbrite firefly luciferase Wnt reporter and pRL-SV40 Renilla luciferase (HEK293-TB) was previously described. HEK293-TB cells were maintained in DMEM/F12 (50:50), supplemented with 10% FBS, 2 mM Glutamax (Gibco, #35050-061) and 40 μg/ml hygromycin (Cellgro, #30-240-CR). For the luciferase reporter assay, HEK293-TB cells were seeded in 96-well plates (Falcon, #353377). The next day, cells were treated with indicated Wnt ligands (50 ng/ml) or CM diluted in culture media. After 24 h, the firefly and Renilla luciferase activity was measured using Dual-Glo Luciferase Assay system (Promega, #E2940) on a Perkin Elmer EnVision multilabel reader. The ratios of firefly luminescence to Renilla luminescence were calculated and normalized to control samples that were not treated.

[6] = tested on: mouse intestinal organoids; test: cystic organoid percentage, organoids treated with recombinant Wnt ligands (Wnt3a, Wnt5a, Wnt11); details: for cystic organoid percentage: SF.3p, Untreated = 0
Procedure: as §1, with “g. Resuspended crypts were mixed with Matrigel (Corning, #356231; Lot#8218007) and pipetted into culture plates. After mixture of crypts and Matrigel solidified, IntestiCult Organoid Growth Medium (Stem Cell Technologies, #06005; Lots #1000021927, #1000034230, #1000037372) was added. Seven days after seeding, organoids were resuspended in dissociation buffer (Gentle Cell Dissociation Reagent; Stem Cell Technologies, #07174), dissociated by pipetting, and seeded for experiments.” for “g.”
as §2

## CN1CCN(CCCN2c3ccccc3Sc3ccc(C(F)(F)F)cc32)CC1 [TFP, Trifluoperazine]
[1]
  effect on cystic organoid phenotype: reduced the percentage of cystic organoids
[2]
  effect on nuclear localization of YAP: reversed SCM- or Wnt5a-induced nuclear translocation of YAP
[3]
  effect on Wnt5a-induced cystic organoid phenotype: reduced the percentage of cystic organoids

## O=C(O)c1ccc2c3c1cccc3c(=O)n1c3ccccc3nc21 [STO-609]
[1]
  effect on cystic organoid phenotype: suppressed the cystic organoid phenotype
[2]
  effect on nuclear localization of YAP: reversed SCM- or Wnt5a-induced nuclear translocation of YAP

## C=CC[C@@H]1/C=C(\C)C[C@H](C)C[C@H](OC)[C@H]2O[C@@](O)(C(=O)C(=O)N3CCCC[C@H]3C(=O)O[C@H](/C(C)=C/[C@@H]3CC[C@@H](O)[C@H](OC)C3)[C@H](C)[C@@H](O)CC1=O)[C@H](C)C[C@@H]2OC [FK506]
[1]
  effect on cystic organoid phenotype: had no effect on this phenotype
[4]; 10 uM FK506, no fibroblasts, replicate 1
  cystic organoids (sheet SF.5d): 16.7523
[4]; 10 uM FK506, no fibroblasts, replicate 2
  cystic organoids (sheet SF.5d): 26.0945
[4]; 10 uM FK506, no fibroblasts, replicate 3
  cystic organoids (sheet SF.5d): 24.3439
[4]; Q + 10uM FK506 (quiescent fibroblasts), replicate 1
  cystic organoids (sheet SF.5d): 27.9243
[4]; Q + 10uM FK506 (quiescent fibroblasts), replicate 2
  cystic organoids (sheet SF.5d): 44.452
[4]; Q + 10uM FK506 (quiescent fibroblasts), replicate 3
  cystic organoids (sheet SF.5d): 38.0019
[4]; SEN + 10uM FK506 (senescent fibroblasts), replicate 1
  cystic organoids (sheet SF.5d): 52.1362
[4]; SEN + 10uM FK506 (senescent fibroblasts), replicate 2
  cystic organoids (sheet SF.5d): 72.7766
[4]; SEN + 10uM FK506 (senescent fibroblasts), replicate 3
  cystic organoids (sheet SF.5d): 37.8556

## CN([C@@H](Cc1ccc(OS(=O)(=O)c2cccc3cnccc23)cc1)C(=O)N1CCN(c2ccccc2)CC1)S(=O)(=O)c1cccc2cnccc12 [KN-62]
[1]
  effect on cystic organoid phenotype: suppressed the cystic organoid phenotype
[2]
  effect on nuclear localization of YAP: reversed SCM- or Wnt5a-induced nuclear translocation of YAP

B1: Wnt11: noncanonical Wnt ligand; recombinant protein, R&D Systems 6179-WN-010 (protein, UniProt O96014 25-354, looked up)
Protein Wnt-11: IKWLALSKTPSALALNQTQHCKQLEGLVSAQVQLCRSNLELMHTVVHAAREVMKACRRAFADMRWNCSSIELAPNYLLDLERGTRESAFVYALSAAAISHAIARACTSGDLPGCSCGPVPGEPPGPGNRWGGCADNLSYGLLMGAKFSDAPMKVKKTGSQANKLMRLHNSEVGRQALRASLEMKCKCHGVSGSCSIRTCWKGLQELQDVAADLKTRYLSATKVVHRPMGTRKHLVPKDLDIRPVKDSELVYLQSSPDFCMKNEKVGSHGTQDRQCNKTSNGSDSCDLMCCGRGYNPYTDRVVERCHCKYHWCCYVTCRRCERTVERYVCK
[5]; replicate 1
  TOPbrite dual-luciferase Wnt reporter activity: 0.9689
[5]; replicate 2
  TOPbrite dual-luciferase Wnt reporter activity: 1.428
[5]; replicate 3
  TOPbrite dual-luciferase Wnt reporter activity: 1.229
[5]; replicate 4
  TOPbrite dual-luciferase Wnt reporter activity: 1.621
[6]; 25ng/ml, replicate 1
  cystic organoid percentage: 1.8358
[6]; 25ng/ml, replicate 2
  cystic organoid percentage: -0.2717
[6]; 25ng/ml, replicate 3
  cystic organoid percentage: -1.279
[6]; 50ng/ml, replicate 1
  cystic organoid percentage: -0.06739
[6]; 50ng/ml, replicate 2
  cystic organoid percentage: -5.163
[6]; 50ng/ml, replicate 3
  cystic organoid percentage: 1.176
[6]; 100ng/ml, replicate 1
  cystic organoid percentage: -0.2558
[6]; 100ng/ml, replicate 2
  cystic organoid percentage: -1.25
[6]; 100ng/ml, replicate 3
  cystic organoid percentage: 2.262
[6]; 250 ng/ml, replicate 1
  cystic organoid percentage: 2.331
[6]; 250 ng/ml, replicate 2
  cystic organoid percentage: -7.143
[6]; 250 ng/ml, replicate 3
  cystic organoid percentage: 1.176
[6]; 500ng/ml, replicate 1
  cystic organoid percentage: 2.331
[6]; 500ng/ml, replicate 2
  cystic organoid percentage: -1.6129
[6]; 500ng/ml, replicate 3
  cystic organoid percentage: 1.42
[6]; 1ug/ml, replicate 1
  cystic organoid percentage: 2.516
[6]; 1ug/ml, replicate 3
  cystic organoid percentage: -0.8403
[6]; recombinant Wnt ligand added to crypt cultures
  induction of cystic organoids: failed to induced cystic organoids

From publication PMC9834240, “Senescent cells perturb intestinal stem cell differentiation through Ptk7 induced noncanonical Wnt and YAP signaling” (Nature Communications, 2023)
